Consider 116 sequences from the supplement of paper PMC10724198.

± gives the standard deviation of the averaged measurements.
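Note: PSI is a weighted mean of sequencing reads over stability bins, variants kept only with over 10 reads, mCherry proximal and sfGFP distal, peptide attached via GGGS linker.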

The subject of the data set is Saccharomyces cerevisiae. The experiment in a line: protein stability index of tFT-peptide fusion (C-terminal peptide) (PSI (0-1 scale)); higher = more stable (slower turnover). The following applies: genetic background: wild type; temperature: 30 C.
Turning to KIRRIHRNVVKG, the protein stability index turned out to be 0.786 ± 0.055.

In turn, KKEEQEKKNRNK had a protein stability index of 0.711 ± 0.027.

In turn, KKEGIWEGERVG showed a protein stability index of 0.724 ± 0.011.

For the sequence KKELKKRNKAKK, the protein stability index was 0.66 ± 0.012.

With KKENKERNNEYE, the protein stability index came out at 0.708 ± 0.081.

Sequence KKGKQQKTEKNG displayed a protein stability index of 0.802 ± 0.26.

In turn, KKGKSKKKGKKT gave a protein stability index of 0.6906 ± 0.0018.

In the case of KKGVSNKVSGFT, the protein stability index is 0.719 ± 0.014.

As for KKIKKKKNKKQE, the protein stability index turned out to be 0.735 ± 0.075.

Take KKKIERKKNKEK: the protein stability index is 0.743 ± 0.071.

The sequence KKKKEKNKHNIR yielded a protein stability index of 0.72 ± 0.009.

KKKKKIEQRKQE returned a protein stability index of 0.67 ± 0.017.

KKKKKKKESRSS came in with a protein stability index of 0.68 ± 0.045.

On to KKKKKKKKNMKR, for which the protein stability index is 0.683 ± 0.024.

On to KKKKKKKKTNKE, for which the protein stability index was found to be 0.656 ± 0.11.

Take KKKKKKKMTNLK: the protein stability index is 0.809 ± 0.054.

The sequence KKKKKKKQIKKK displayed a protein stability index of 0.747 ± 0.026.

The sequence KKKKKKKRNGAP displayed a protein stability index of 0.667 ± 0.05.

In turn, KKKKKKRIREKR yielded a protein stability index of 0.721 ± 0.048.

As for KKKKKKRNKQKN, the protein stability index was found to be 0.752 ± 0.043.

For KKKKKSEIPKIT, the protein stability index was determined as 0.686 ± 0.084.

KKKKNKLRNKQE gave a protein stability index of 0.656 ± 0.015.

On to KKKKNNKETKNK, for which the protein stability index was 0.705 ± 0.015.

Regarding KKKKPKNKSKDK, the protein stability index is 0.634 ± 0.095.

KKKKPKQKQKET displayed a protein stability index of 0.686 ± 0.016.

Turning to KKKKTKKKKINI, the protein stability index turned out to be 0.605 ± 0.0077.

KKKKTKKSKQKK yielded a protein stability index of 0.721 ± 0.0089.

As to KKKLKRTIKKIA, the protein stability index came to 0.481 ± 0.034.

In turn, KKKNEKQNRLKN came in with a protein stability index of 0.769 ± 0.029.

The sequence KKKNKENKKKKK came in with a protein stability index of 0.737 ± 0.023.

The sequence KKKREKKKENTK registered a protein stability index of 0.7108 ± 0.0067.

KKKRIERKEKGE showed a protein stability index of 0.676 ± 0.059.

For the sequence KKKRMKIKCIGI, the protein stability index was 0.647 ± 0.063.

In the case of KKKTIKNNERSK, the protein stability index stood at 0.69 ± 0.071.

Consider KKKYKKNKKKNK, for which the protein stability index is 0.65 ± 0.033.

Consider KKLGLRLTFLHC, for which the protein stability index was 0.564 ± 0.043.

KKNEEKRRGEGK showed a protein stability index of 0.67 ± 0.049.

In turn, KKNERKEKNNTN returned a protein stability index of 0.673 ± 0.014.

On to KKNETKQEKNTR, for which the protein stability index was determined as 0.689 ± 0.026.

As to KKNEVIKKNLRK, the protein stability index came to 0.616 ± 0.063.

The sequence KKNIKKKRNIEK had a protein stability index of 0.625 ± 0.04.

In turn, KKNIKKKTKQKE registered a protein stability index of 0.696 ± 0.007.

In turn, KKNKNKEYCKVK yielded a protein stability index of 0.734 ± 0.082.

In turn, KKNNNINKHTST had a protein stability index of 0.6652 ± 0.0058.

KKNYEKPIRKYQ returned a protein stability index of 0.642 ± 0.02.

On to KKQHTKKKKKKR, for which the protein stability index was 0.752 ± 0.041.

The sequence KKQKKQKKKSHK had a protein stability index of 0.715 ± 0.047.

With KKRDKKKLRRVE, the protein stability index came out at 0.672 ± 0.044.

With KKRGKNSKAQRE, the protein stability index amounted to 0.694 ± 0.013.

KKRHYSCYKNTN showed a protein stability index of 0.725 ± 0.015.

KKSIVEARLSNM yielded a protein stability index of 0.58 ± 0.075.

On to KKTNTQTKKKTK, for which the protein stability index was determined as 0.709 ± 0.075.

The sequence KKTQKNIKKKAK had a protein stability index of 0.679 ± 0.025.

As for KKTRRGSNKKEG, the protein stability index came out at 0.681 ± 0.025.

Sequence KKTSQKQKGKRQ came in with a protein stability index of 0.671 ± 0.12.

KLCGIYMVGGKK registered a protein stability index of 0.65093 ± 0.00038.

For the sequence KLGLLKVRVCDG, the protein stability index stood at 0.608 ± 0.0061.

KLGRWGARGSGR displayed a protein stability index of 0.655 ± 0.021.

Regarding KLKTKQNKERNK, the protein stability index stood at 0.757 ± 0.076.

For KLREKKLLKIAE, the protein stability index turned out to be 0.679 ± 0.042.

The sequence KLSSQAWMISEK returned a protein stability index of 0.695 ± 0.055.

For the sequence KLVGFRPHAWWF, the protein stability index is 0.701 ± 0.016.

The sequence KNIIEKKIKKRK returned a protein stability index of 0.711 ± 0.0049.

KNKKEKKKVKRT came in with a protein stability index of 0.687 ± 0.026.

KNKKKKKTKKKK registered a protein stability index of 0.792 ± 0.079.

Sequence KNKKKNKNNKKK had a protein stability index of 0.7048 ± 0.00079.

KNKKNKKKTPTT gave a protein stability index of 0.727 ± 0.013.

As to KNNVVKIEEEKK, the protein stability index worked out at 0.751 ± 0.013.

As to KNRHWNKKIRKC, the protein stability index was found to be 0.6533 ± 0.0065.

On to KNRKSYTINSRK, for which the protein stability index is 0.656 ± 0.055.

Sequence KPKANTEKIPIQ displayed a protein stability index of 0.68 ± 0.018.

In turn, KPKHNKKILEKK registered a protein stability index of 0.671 ± 0.037.

In turn, KPKLSHPQPLRI showed a protein stability index of 0.699 ± 0.016.

The sequence KPLPPPEFRPHP yielded a protein stability index of 0.69 ± 0.02.

KPRFRATPRQTT showed a protein stability index of 0.713 ± 0.037.

KPRLARLSLSLL came in with a protein stability index of 0.784 ± 0.14.

On to KQKQRKERIKRK, for which the protein stability index amounted to 0.688 ± 0.069.

KQVIIEKSIQQR came in with a protein stability index of 0.661 ± 0.051.

For the sequence KRAPEPPTPPAP, the protein stability index worked out at 0.672 ± 0.015.

Turning to KRGKNKKRKQKK, the protein stability index was determined as 0.716 ± 0.0076.

With KRNKITKKDRIN, the protein stability index came to 0.613 ± 0.031.

On to KRNKKCKKIKKK, for which the protein stability index was determined as 0.677 ± 0.11.

In turn, KRRNKEHNKIRD displayed a protein stability index of 0.652 ± 0.052.

For KSAGNWSKGKRE, the protein stability index is 0.713 ± 0.083.

KSGGWLWVGGGG showed a protein stability index of 0.748 ± 0.039.

For KSHKKKKKNKNF, the protein stability index was 0.539 ± 0.0035.

KSKGGGTEPNRR showed a protein stability index of 0.695 ± 0.009.

As for KSKKKKKNKTNR, the protein stability index turned out to be 0.6792 ± 0.0022.

On to KSKRKKKKQTKR, for which the protein stability index was determined as 0.653 ± 0.024.

KSVGKGIIQLRL displayed a protein stability index of 0.726 ± 0.042.

KTECMAIEKTLV returned a protein stability index of 0.686 ± 0.033.

The sequence KTENGRSNSETR registered a protein stability index of 0.686 ± 0.074.

Turning to KTGLMRGHEVAS, the protein stability index was 0.673 ± 0.03.

Regarding KTGNKKQRKKKV, the protein stability index is 0.753 ± 0.032.

Consider KTHTIGPSPYYD, for which the protein stability index worked out at 0.649 ± 0.0088.

On to KTKGPKSKPKRK, for which the protein stability index amounted to 0.6563 ± 0.0046.

In turn, KTKKNKITFKNK showed a protein stability index of 0.759 ± 0.02.

For KTNIKKQSKISK, the protein stability index turned out to be 0.778 ± 0.18.

Regarding KTQKNQKLTRSK, the protein stability index is 0.769 ± 0.12.

In turn, KTRKKEKKPSRK yielded a protein stability index of 0.6233 ± 0.0036.

Sequence KVDGTIDSRVMS came in with a protein stability index of 0.683 ± 0.089.

Consider KVRAGLGIRITQ, for which the protein stability index was 0.674 ± 0.021.

Regarding KVRSFGGLFVKG, the protein stability index was found to be 0.68 ± 0.022.

KVSCGGAGDSLG: the protein stability index was determined as 0.693 ± 0.022.

KVSIINAWKEKI yielded a protein stability index of 0.679 ± 0.044.

As for KVVVWRAKTSHS, the protein stability index was found to be 0.692 ± 0.068.

For the sequence KWLAQLEHEKYN, the protein stability index is 0.696 ± 0.025.

KWMKKIKTRRQI displayed a protein stability index of 0.609 ± 0.018.

Sequence KYHIKKPSTLEI returned a protein stability index of 0.683 ± 0.01.

The sequence KYKKNNNKKQNQ came in with a protein stability index of 0.704 ± 0.097.

In turn, KYYRKKNIEKEN showed a protein stability index of 0.575 ± 0.017.

Sequence LACCGGLVTWVL displayed a protein stability index of 0.6891 ± 0.0046.

Regarding LACTSPLLLRFR, the protein stability index amounted to 0.673 ± 0.023.

Regarding LADFMFCALPLC, the protein stability index was found to be 0.658 ± 0.045.

With LADRTREFSNPA, the protein stability index stood at 0.6466 ± 0.0054.

LAFFPRGTPPHS registered a protein stability index of 0.67 ± 0.029.
